Tested on: Escherichia coli TOP10
Experiment: shrunken log2 fold change of peptide-encoding DNA abundance (4.5 h post-induction vs induction); higher = less antimicrobial activity (less host growth inhibition)
Conditions: time post-induction: 4.5 h; library: site-saturation at positions 5, 18, 19, 20
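Further: peptides expressed intracellularly from a pBAD plasmid library in pooled LB shake-flask culture, induced with 0.3% L-arabinose, DNA abundance read by NGS, three biological replicates, DESeq2 with apeglm shrinkage.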

Sequence	shrunken log2 fold change
RRIRDRPPRLPRPRPRPVVSPRP	0.0706
RRIRVRPPRLPRPRPRPLKPPRP	-0.0393
RRIRGRPPRLPRPRPRPKPVPRP	0.985
RRIRGRPPRLPRPRPRPMSIPRP	0.0628
RRIRERPPRLPRPRPRPYITPRP	-1.07
RRIRMRPPRLPRPRPRPTLCPRP	0.122
RRIRARPPRLPRPRPRPVRDPRP	0.315
RRIRPRPPRLPRPRPRPFNHPRP	-0.304
RRIRPRPPRLPRPRPRPNDYPRP	-0.307
RRIRPRPPRLPRPRPRPPMHPRP	0.359
RRIRDRPPRLPRPRPRPEACPRP	0.644
RRIRWRPPRLPRPRPRPRNAPRP	0.0837
RRIRFRPPRLPRPRPRPKGDPRP	0.054
RRIRLRPPRLPRPRPRPKPPPRP	0.586
RRIRGRPPRLPRPRPRPEPGPRP	1.33
RRIRRRPPRLPRPRPRPIMYPRP	-0.186
RRIRVRPPRLPRPRPRPAQGPRP	0.00544
RRIRKRPPRLPRPRPRPEYFPRP	0.084
RRIRLRPPRLPRPRPRPAYMPRP	-0.275
RRIRMRPPRLPRPRPRPQPDPRP	0.658
RRIRFRPPRLPRPRPRPESQPRP	-0.0723
RRIRNRPPRLPRPRPRPHHRPRP	0.0742
RRIRVRPPRLPRPRPRPLHCPRP	0.238
RRIRLRPPRLPRPRPRPHKKPRP	-0.163
RRIRLRPPRLPRPRPRPKSRPRP	-0.176

Sequence	shrunken log2 fold change
RRIRQRPPRLPRPRPRPCLHPRP	-0.0247
RRIRARPPRLPRPRPRPNQRPRP	0.532
RRIRLRPPRLPRPRPRPHALPRP	-0.396
RRIRGRPPRLPRPRPRPAYLPRP	0.235
RRIRKRPPRLPRPRPRPEHAPRP	1.12
RRIRLRPPRLPRPRPRPLKPPRP	0.171
RRIRGRPPRLPRPRPRPLLHPRP	0.762
RRIRIRPPRLPRPRPRPNMEPRP	-0.509
RRIRDRPPRLPRPRPRPALLPRP	1.02
RRIRFRPPRLPRPRPRPWCVPRP	-0.384
RRIRTRPPRLPRPRPRPSSVPRP	-0.139
RRIRQRPPRLPRPRPRPPECPRP	-0.0742
RRIRHRPPRLPRPRPRPRWSPRP	0.00212
RRIRHRPPRLPRPRPRPFPKPRP	0.0904
RRIRCRPPRLPRPRPRPDVDPRP	0.0251
RRIRARPPRLPRPRPRPCGWPRP	0.365
RRIRGRPPRLPRPRPRPIRIPRP	0.217
RRIRGRPPRLPRPRPRPYKYPRP	-0.346
RRIRERPPRLPRPRPRPRVVPRP	0.069
RRIRSRPPRLPRPRPRPSCIPRP	-0.223
RRIRFRPPRLPRPRPRPNVVPRP	-0.046
RRIRCRPPRLPRPRPRPWGRPRP	-0.118
RRIRQRPPRLPRPRPRPCWHPRP	-0.129
RRIRHRPPRLPRPRPRPVEAPRP	0.0753
RRIRDRPPRLPRPRPRPVIQPRP	0.474

Sequence	shrunken log2 fold change
RRIRHRPPRLPRPRPRPEIFPRP	-0.0725
RRIRVRPPRLPRPRPRPAKSPRP	-0.112
RRIRYRPPRLPRPRPRPAWRPRP	0.0762
RRIRIRPPRLPRPRPRPAAGPRP	0.0506
RRIRHRPPRLPRPRPRPECLPRP	-0.00297
RRIRRRPPRLPRPRPRPCDTPRP	-0.092
RRIRARPPRLPRPRPRPEGMPRP	1.2
RRIRVRPPRLPRPRPRPQSIPRP	-0.176
RRIRKRPPRLPRPRPRPWWNPRP	0.0316
RRIRMRPPRLPRPRPRPREEPRP	1.41
RRIRQRPPRLPRPRPRPEMIPRP	-0.0264
RRIRFRPPRLPRPRPRPWRAPRP	0.0757
RRIRHRPPRLPRPRPRPNIRPRP	0.0598
RRIRSRPPRLPRPRPRPEYFPRP	-1.04
RRIRGRPPRLPRPRPRPQPLPRP	0.45
RRIRQRPPRLPRPRPRPEPCPRP	-0.0944
RRIRWRPPRLPRPRPRPPVCPRP	0.15
RRIRVRPPRLPRPRPRPVIKPRP	-0.138
RRIRHRPPRLPRPRPRPFWDPRP	-0.0244
RRIRWRPPRLPRPRPRPDREPRP	-0.0009
RRIRPRPPRLPRPRPRPYPDPRP	-0.145
RRIRMRPPRLPRPRPRPIYVPRP	-0.165
RRIRTRPPRLPRPRPRPSCKPRP	-0.885
RRIRLRPPRLPRPRPRPQVSPRP	0.0548
RRIRSRPPRLPRPRPRPVEYPRP	-0.553
